B1: MATN2 (parent)
chain: VNVPGSFVCQCYSGYALAEDGKRC
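Note: lentivirally expressed fusions sorted by FACS into six bins by GFP to DsRed ratio, PSI derived from sequencing read proportions per bin multiplied by bin number.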

The variants in this series derive from B1. The series can be described thus: protein stability index of a GFP-peptide fusion (GPS, HEK-293T) (PSI 1-6); higher = more stable. Particulars: c terminus: a fixed tail appended.
VNVPGSFVCQCYSGKALAEDGKRC [Y15K]: the protein stability index came out at 1.98. As for VNVPGSFVCQCYSGMALAEDGKRC [Y15M], the protein stability index amounted to 2.19.

Regarding VNVPGSFVCQCYSGEALAEDGKRC [Y15E], the protein stability index was 2.5. The figure for VNVPGSFVCQCYSGWALAEDGKRC [Y15W] is 1.65. With VNVPGSFVCQCYSGCALAEDGKRC [Y15C], the protein stability index is 2.77. The figure for VNVPGSFVCQCYSGNALAEDGKRC [Y15N] is 2.19; for VNVPGSFVCQCYSGHALAEDGKRC [Y15H] it is 1.91; for VNVPGSFVCQCYSGPALAEDGKRC [Y15P] it is 2.81. For VNVPGSFVCQCYSGIALAEDGKRC [Y15I], the protein stability index was determined as 2.23. The result for VNVPGSFVCQCYSGRALAEDGKRC [Y15R] reads 2; that for VNVPGSFVCQCYSGFALAEDGKRC [Y15F], 2.38; that for VNVPGSFVCQCYSGSALAEDGKRC [Y15S], 3.02. The figure for VNVPGSFVCQCYSGLALAEDGKRC [Y15L] is 2.19; for VNVPGSFVCQCYSGDALAEDGKRC [Y15D] it is 2.03; for VNVPGSFVCQCYSGGALAEDGKRC [Y15G] it is 2.14. The figure for VNVPGSFVCQCYSGQALAEDGKRC [Y15Q] is 1.98; for VNVPGSFVCQCYSGTALAEDGKRC [Y15T] it is 2.33; for VNVPGSFVCQCYSGAALAEDGKRC [Y15A] it is 2.56.

For VNVPGSFVCQCYSGYALAFDGKRC [E19F], the protein stability index was 1.17. As to VNVPGSFVCQCYSGYALAHDGKRC [E19H], the protein stability index worked out at 3.03.

With VNVPGSFVCQCYSGYALAYDGKRC [E19Y], the protein stability index came to 1.7. The figure for VNVPGSFVCQCYSGYALAIDGKRC [E19I] is 2.77; for VNVPGSFVCQCYSGYALAGDGKRC [E19G] it is 2.83; for VNVPGSFVCQCYSGYALAWDGKRC [E19W] it is 1.86. The figure for VNVPGSFVCQCYSGYALATDGKRC [E19T] is 1.75. The figure for VNVPGSFVCQCYSGYALAPDGKRC [E19P] is 1.54; for VNVPGSFVCQCYSGYALAMDGKRC [E19M] it is 2.33. With VNVPGSFVCQCYSGYALASDGKRC [E19S], the protein stability index amounted to 1.43. The figure for VNVPGSFVCQCYSGYALACDGKRC [E19C] is 3.15. The result for VNVPGSFVCQCYSGYALADDGKRC [E19D] reads 1.76; that for VNVPGSFVCQCYSGYALAKDGKRC [E19K], 2; that for VNVPGSFVCQCYSGYALAVDGKRC [E19V], 2.29. Consider VNVPGSFVCQCYSGYALAADGKRC [E19A], for which the protein stability index is 1.93. The result for VNVPGSFVCQCYSGYALANDGKRC [E19N] reads 2.79. The figure for VNVPGSFVCQCYSGYALAQDGKRC [E19Q] is 1.75; for VNVPGSFVCQCYSGYALARDGKRC [E19R] it is 1.51; for VNVPGSFVCQCYSPYALAEDGKRC [G14P] it is 1.78. Consider VNVPGSFVCQCYSHYALAEDGKRC [G14H], for which the protein stability index was found to be 2.37.

VNVPGSFVCQCYSMYALAEDGKRC [G14M]: the protein stability index is 2.52.

As for VNVPGSFVCQCYSEYALAEDGKRC [G14E], the protein stability index came to 2.91.

As to VNVPGSFVCQCYSNYALAEDGKRC [G14N], the protein stability index was 1.56. With VNVPGSFVCQCYSFYALAEDGKRC [G14F], the protein stability index turned out to be 2.6. The figure for VNVPGSFVCQCYSTYALAEDGKRC [G14T] is 1.69; for VNVPGSFVCQCYSYYALAEDGKRC [G14Y] it is 1.86; for VNVPGSFVCQCYSDYALAEDGKRC [G14D] it is 1.95. The result for VNVPGSFVCQCYSKYALAEDGKRC [G14K] reads 2.7; that for VNVPGSFVCQCYSIYALAEDGKRC [G14I], 3.06. For VNVPGSFVCQCYSCYALAEDGKRC [G14C], the protein stability index is 2.16.

Consider VNVPGSFVCQCYSRYALAEDGKRC [G14R], for which the protein stability index is 2.81. The figure for VNVPGSFVCQCYSQYALAEDGKRC [G14Q] is 1.83; for VNVPGSFVCQCYSLYALAEDGKRC [G14L] it is 3.03. The figure for VNVPGSFVCQCYSAYALAEDGKRC [G14A] is 2.37; for VNVPGSFVCQCYSWYALAEDGKRC [G14W] it is 1.93; for VNVPGSFVCQCYSSYALAEDGKRC [G14S] it is 2.44. The result for VNVPGSFVCQCLSGYALAEDGKRC [Y12L] reads 2.21; that for VNVPGSFVCQCQSGYALAEDGKRC [Y12Q], 1.76; that for VNVPGSFVCQCRSGYALAEDGKRC [Y12R], 2. Regarding VNVPGSFVCQCCSGYALAEDGKRC [Y12C], the protein stability index turned out to be 2.87. The result for VNVPGSFVCQCTSGYALAEDGKRC [Y12T] reads 2.95; that for VNVPGSFVCQCDSGYALAEDGKRC [Y12D], 4.36; that for VNVPGSFVCQCESGYALAEDGKRC [Y12E], 3.47. The result for VNVPGSFVCQCPSGYALAEDGKRC [Y12P] reads 3.02; that for VNVPGSFVCQCFSGYALAEDGKRC [Y12F], 2.54. The figure for VNVPGSFVCQCHSGYALAEDGKRC [Y12H] is 2.24. For VNVPGSFVCQCISGYALAEDGKRC [Y12I], the protein stability index is 1.36. The result for VNVPGSFVCQCASGYALAEDGKRC [Y12A] reads 2.73; that for VNVPGSFVCQCSSGYALAEDGKRC [Y12S], 2.64; that for VNVPGSFVCQCNSGYALAEDGKRC [Y12N], 1.98. VNVPGSFVCQCWSGYALAEDGKRC [Y12W]: the protein stability index worked out at 2.62. For the variant VNVPGSFVCQCKSGYALAEDGKRC [Y12K], the protein stability index was 1.96. Regarding VNVPGSFVCQCVSGYALAEDGKRC [Y12V], the protein stability index amounted to 2.13. Turning to VNVPGSFVCQEYSGYALAEDGKRC [C11E], the protein stability index worked out at 3.27. The result for VNVPGSFVCQDYSGYALAEDGKRC [C11D] reads 4.08; that for VNVPGSFVCQRYSGYALAEDGKRC [C11R], 3.32.

For the variant VNVPGSFVCQVYSGYALAEDGKRC [C11V], the protein stability index is 1.7. The result for VNVPGSFVCQQYSGYALAEDGKRC [C11Q] reads 2.94; that for VNVPGSFVCQFYSGYALAEDGKRC [C11F], 2.48; that for VNVPGSFVCQPYSGYALAEDGKRC [C11P], 2.42. The result for VNVPGSFVCQTYSGYALAEDGKRC [C11T] reads 2.43; that for VNVPGSFVCQMYSGYALAEDGKRC [C11M], 1.86. The figure for VNVPGSFVCQIYSGYALAEDGKRC [C11I] is 1.72; for VNVPGSFVCQGYSGYALAEDGKRC [C11G] it is 2.75.

VNVPGSFVCQWYSGYALAEDGKRC [C11W]: the protein stability index is 2.05. The result for VNVPGSFVCQAYSGYALAEDGKRC [C11A] reads 3.12; that for VNVPGSFVCQNYSGYALAEDGKRC [C11N], 2.97; that for VNVPGSFVCQYYSGYALAEDGKRC [C11Y], 2.1. Turning to VNVPGSFVCQKYSGYALAEDGKRC [C11K], the protein stability index came out at 2.87. The figure for VNVPGSFVCQLYSGYALAEDGKRC [C11L] is 2.19; for VNVPGSFVCQHYSGYALAEDGKRC [C11H] it is 2.65. As for VNVPGSFVCQCYSGYALIEDGKRC [A18I], the protein stability index is 1.64. The figure for VNVPGSFVCQCYSGYALYEDGKRC [A18Y] is 2.84; for VNVPGSFVCQCYSGYALCEDGKRC [A18C] it is 3.33; for VNVPGSFVCQCYSGYALEEDGKRC [A18E] it is 2.56. For the variant VNVPGSFVCQCYSGYALREDGKRC [A18R], the protein stability index amounted to 2.38.
